Test results taken from PMC8376870 (2021).

Target: GST-G511-V540 (TRPV6 S5 fragment) (Homo sapiens (Human), UniProt Q9H1D0)
Assay: in vitro pull-down (GST/His-MBP) with western blot

Chain of GST-G511-V540 (TRPV6 S5 fragment) (Q9H1D0 511-540): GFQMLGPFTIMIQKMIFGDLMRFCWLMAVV

binding result: binds
B1: His-MBP-A603-L632 (TRPV6 S6 fragment) (protein)
chain: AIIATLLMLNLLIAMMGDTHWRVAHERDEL
